“And” between values parts separate entries of the source, which are not always exact repeats. Identical values can stand only once.
Tests used:
SARS-CoV-2 Spike [1] = target: T1, SARS-CoV-2 Spike (SARS-CoV-2, UniProt P0DTC2 16-685)
SARS-CoV-2 Spike [2] = target: T1, SARS-CoV-2 Spike; experiment: inhibitor screening kit, ADGN-106 nanoparticles (Example 6, section A)
SARS-CoV-2 Spike [3] = target: T1, SARS-CoV-2 Spike; experiment: inhibitor screening kit, ADGN-106 nanoparticles (Example 6, section B)

B1: Seq28 (LNCOV-20)/ADGN-106 nanoparticle complex (other)
peptide 1: KTFLDKFNHEAEDLFPGPKWSAFLKEQSTLAQMYG
peptide 2: LWRALWRLWRSLWRLLWK
SARS-CoV-2 Spike [1]
  IC50: 2.7 nM and 2.1 nM
SARS-CoV-2 Spike [2]
  fold more potent than SBP-1-ADGN-106/ADGN-106 complex: 6 fold
  fold more potent than SBP-1 peptide/ADGN-106 complex: 40 fold
SARS-CoV-2 Spike [3]
  fold more potent than SBP-1-ADGN-106/ADGN-106 complex: 4 fold
  fold more potent than SBP-1 peptide/ADGN-106 complex: 35 fold

B2: Seq27 (LNCOV-27)/ADGN-106 nanoparticle complex (other)
peptide 1: EQAKTFLDKFNHEAEDLFPKWSAFLKEQSTLAQMYG
peptide 2: LWRALWRLWRSLWRLLWK
SARS-CoV-2 Spike [1]
  IC50: 1.8 nM and 1.1 nM
SARS-CoV-2 Spike [2]
  fold more potent than SBP-1-ADGN-106/ADGN-106 complex: 6 fold
  fold more potent than SBP-1 peptide/ADGN-106 complex: 40 fold
SARS-CoV-2 Spike [3]
  fold more potent than SBP-1-ADGN-106/ADGN-106 complex: 4 fold
  fold more potent than SBP-1 peptide/ADGN-106 complex: 35 fold
